Source: patent publication US10464987B2
pKd: −log10 of the molar value.

What was measured:
[1] = biological target: SIY peptide on H-2Kb (mouse); assay: value stated for 2C in the legend of FIG. 16, no measurement described; given for scTv and full-length constructs alike
[2] = biological target: SIY peptide on H-2Kb (mouse); assay: value stated for m33 in the legend of FIG. 16, no measurement described; given for scTv and full-length constructs alike
[3] = biological target: SIY peptide on H-2Kb (mouse); assay: value cited from Chervin et al. 2009 (ref 18); not measured in this filing

Substance | pKd [1] | pKd [2] | pKd [3]
2C full-length TCR | 4.52 |  | 
m33 full-length TCR |  | 7.52 | 7.80
